# Test results reported in US20180086841A1.
# Experiments:
# D32A [1] = test: flow cytometry on CHO-K1 transfectants, right sub-column, cell hatched (loss of binding)
# Q15A [2] = test: as above
# K17A [3] = test: as above
# R93A [4] = test: flow cytometry on CHO-K1 transfectants, left sub-column
# P44A [5] = test: as above
# V30A [6] = test: as above
# G16A [7] = test: as above
# R10A [8] = test: as above
# F28A [9] = test: as above
# H36A [10] = test: as above
# I46A [11] = test: as above
# Q91A [12] = test: as above
# D43A [13] = test: as above
# R37A [14] = test: as above
# S63A [15] = test: as above
# W90A [16] = test: as above
# H60A [17] = test: as above
# G89A [18] = test: as above
# K31A [19] = test: as above
# E9A [20] = test: as above
# R87A [21] = test: as above
# Q41A [22] = test: as above
# V49A [23] = test: as above
# W13A [24] = test: as above
# K38A [25] = test: as above
# P8A [26] = test: as above
# N88A [27] = test: as above
# D32A [28] = test: flow cytometry on CHO-K1 transfectants, left sub-column, cell hatched (loss of binding)
# Q15A [29] = test: as above
# K17A [30] = test: as above
# R93A [31] = test: flow cytometry on CHO-K1 transfectants, right sub-column
# P44A [32] = test: as above
# V30A [33] = test: as above
# G16A [34] = test: as above
# R10A [35] = test: as above
# F28A [36] = test: as above
# H36A [37] = test: as above
# I46A [38] = test: as above
# Q91A [39] = test: as above
# D43A [40] = test: as above
# R37A [41] = test: as above
# S63A [42] = test: as above
# W90A [43] = test: as above
# H60A [44] = test: as above
# G89A [45] = test: as above
# K31A [46] = test: as above
# E9A [47] = test: as above
# R87A [48] = test: as above
# Q41A [49] = test: as above
# V49A [50] = test: as above
# W13A [51] = test: as above
# K38A [52] = test: as above
# P8A [53] = test: as above
# N88A [54] = test: as above
# R37A [55] = test: flow cytometry on CHO-K1 transfectants, right sub-column, cell hatched (loss of binding)
# K38A [56] = test: as above
# D32A [57] = test: flow cytometry on CHO-K1 transfectants, left sub-column
# Q15A [58] = test: as above
# K17A [59] = test: as above
# R37A [60] = test: flow cytometry on CHO-K1 transfectants, left sub-column, cell hatched (loss of binding)
# K38A [61] = test: as above
# D32A [62] = test: flow cytometry on CHO-K1 transfectants, right sub-column
# Q15A [63] = test: as above
# K17A [64] = test: as above
# [65] = molecular target: human CD27 (A59T) (human) (UniProt P26842); test: flow cytometry on CHO-K1 cells transfected with CD27 A59T (empty vector: GM FITC 212)
# [66] = molecular target: human CD27 (A59T) (human) (UniProt P26842); test: flow cytometry on CHO-K1 cells transfected with CD27 A59T (empty vector: + 5.32)
# human CD27 (human) [67] = molecular target: human CD27 (human) (UniProt P26842); test: flow cytometry on CHO-K1 cells transfected with CD27 (empty vector: + 5.32)
# human CD27 (human) [68] = molecular target: human CD27 (human) (UniProt P26842); test: flow cytometry on CHO-K1 cells transfected with CD27 (empty vector: GM FITC 212)
# R37A, sequence (receptor chain, as listed by the source R37A R37A limits assumed): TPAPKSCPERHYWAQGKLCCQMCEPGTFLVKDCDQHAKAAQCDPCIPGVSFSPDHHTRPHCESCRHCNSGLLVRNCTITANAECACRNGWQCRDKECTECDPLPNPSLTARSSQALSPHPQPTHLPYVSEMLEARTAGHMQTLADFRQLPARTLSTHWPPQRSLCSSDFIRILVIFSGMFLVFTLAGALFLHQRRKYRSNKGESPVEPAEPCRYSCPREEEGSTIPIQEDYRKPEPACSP
# W13A, sequence (receptor chain, as listed by the source W13A W13A limits assumed): as the sequence (receptor chain, as listed by the source R37A R37A limits assumed) above, with W13A, A37R counted along it
# P8A, sequence (receptor chain, as listed by the source limits assumed): as the sequence (receptor chain, as listed by the source R37A R37A limits assumed) above, with P8A, A37R counted along it
# Q91A, sequence (receptor chain, as listed by the source Q91A Q91A limits assumed): as the sequence (receptor chain, as listed by the source R37A R37A limits assumed) above, with A37R, Q91A counted along it
# H60A, sequence (receptor chain, as listed by the source H60A H60A limits assumed): as the sequence (receptor chain, as listed by the source R37A R37A limits assumed) above, with A37R, H60A counted along it
# R93A, sequence (receptor chain, as listed by the source R93A R93A limits assumed): as the sequence (receptor chain, as listed by the source R37A R37A limits assumed) above, with A37R, R93A counted along it
# E9A, sequence (receptor chain, as listed by the source limits assumed): as the sequence (receptor chain, as listed by the source R37A R37A limits assumed) above, with E9A, A37R counted along it
# G16A, sequence (receptor chain, as listed by the source G16A G16A limits assumed): as the sequence (receptor chain, as listed by the source R37A R37A limits assumed) above, with G16A, A37R counted along it
# G89A, sequence (receptor chain, as listed by the source G89A G89A limits assumed): as the sequence (receptor chain, as listed by the source R37A R37A limits assumed) above, with A37R, G89A counted along it
# N88A, sequence (receptor chain, as listed by the source N88A N88A limits assumed): as the sequence (receptor chain, as listed by the source R37A R37A limits assumed) above, with A37R, N88A counted along it
# Q15A, sequence (receptor chain, as listed by the source Q15A Q15A limits assumed): as the sequence (receptor chain, as listed by the source R37A R37A limits assumed) above, with Q15A, A37R counted along it
# H36A, sequence (receptor chain, as listed by the source H36A H36A limits assumed): as the sequence (receptor chain, as listed by the source R37A R37A limits assumed) above, with H36A, A37R counted along it
# I46A, sequence (receptor chain, as listed by the source I46A I46A limits assumed): as the sequence (receptor chain, as listed by the source R37A R37A limits assumed) above, with A37R, I46A counted along it
# D43A, sequence (receptor chain, as listed by the source D43A D43A limits assumed): as the sequence (receptor chain, as listed by the source R37A R37A limits assumed) above, with A37R, D43A counted along it
# R87A, sequence (receptor chain, as listed by the source R87A R87A limits assumed): as the sequence (receptor chain, as listed by the source R37A R37A limits assumed) above, with A37R, R87A counted along it
# Fc-mCD70, sequence (O55237 45-195): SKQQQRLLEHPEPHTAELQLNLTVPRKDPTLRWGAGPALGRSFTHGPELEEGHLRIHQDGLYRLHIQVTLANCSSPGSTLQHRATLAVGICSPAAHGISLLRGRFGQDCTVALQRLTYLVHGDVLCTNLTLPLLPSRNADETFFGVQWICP
# S63A, sequence (receptor chain, as listed by the source S63A S63A limits assumed): as the sequence (receptor chain, as listed by the source R37A R37A limits assumed) above, with A37R, S63A counted along it
# D32A, sequence (receptor chain, as listed by the source D32A D32A limits assumed): as the sequence (receptor chain, as listed by the source R37A R37A limits assumed) above, with D32A, A37R counted along it
# R10A, sequence (receptor chain, as listed by the source R10A R10A limits assumed): as the sequence (receptor chain, as listed by the source R37A R37A limits assumed) above, with R10A, A37R counted along it
# W90A, sequence (receptor chain, as listed by the source W90A W90A limits assumed): as the sequence (receptor chain, as listed by the source R37A R37A limits assumed) above, with A37R, W90A counted along it
substance,measurement,setting,value
1A4 (mouse IgG1) (antibody),"binding, WT hCD27 = 100 (GM FITC)",D32A [1],8.7%
same,"binding, WT hCD27 = 100 (GM FITC)",Q15A [2],7.6%
same,"binding, WT hCD27 = 100 (GM FITC)",K17A [3],6.8%
same,"binding, WT hCD27 = 100 (GM FITC)",R93A [4],120%
same,"binding, WT hCD27 = 100 (GM FITC)",P44A [5],146%
same,"binding, WT hCD27 = 100 (GM FITC)",V30A [6],161%
same,"binding, WT hCD27 = 100 (GM FITC)",G16A [7],90.8%
same,"binding, WT hCD27 = 100 (GM FITC)",R10A [8],107%
same,"binding, WT hCD27 = 100 (GM FITC)",F28A [9],113%
same,"binding, WT hCD27 = 100 (GM FITC)",H36A [10],111%
same,"binding, WT hCD27 = 100 (GM FITC)",I46A [11],129%
same,"binding, WT hCD27 = 100 (GM FITC)",Q91A [12],146%
same,"binding, WT hCD27 = 100 (GM FITC)",D43A [13],195%
same,"binding, WT hCD27 = 100 (GM FITC)",R37A [14],115%
same,"binding, WT hCD27 = 100 (GM FITC)",S63A [15],158%
same,"binding, WT hCD27 = 100 (GM FITC)",W90A [16],123%
same,"binding, WT hCD27 = 100 (GM FITC)",H60A [17],167%
same,"binding, WT hCD27 = 100 (GM FITC)",G89A [18],100%
same,"binding, WT hCD27 = 100 (GM FITC)",K31A [19],194%
same,"binding, WT hCD27 = 100 (GM FITC)",E9A [20],98.2%
same,"binding, WT hCD27 = 100 (GM FITC)",R87A [21],143%
same,"binding, WT hCD27 = 100 (GM FITC)",Q41A [22],106%
same,"binding, WT hCD27 = 100 (GM FITC)",V49A [23],144%
same,"binding, WT hCD27 = 100 (GM FITC)",W13A [24],89.1%
same,"binding, WT hCD27 = 100 (GM FITC)",K38A [25],104%
same,"binding, WT hCD27 = 100 (GM FITC)",P8A [26],84.5%
same,"binding, WT hCD27 = 100 (GM FITC)",N88A [27],154%
same,"binding, WT hCD27 = 100 (GM FITC)",D32A [28],43.7%
same,"binding, WT hCD27 = 100 (GM FITC)",Q15A [29],32%
same,"binding, WT hCD27 = 100 (GM FITC)",K17A [30],32.4%
same,"binding, WT hCD27 = 100 (GM FITC)",R93A [31],91.1%
same,"binding, WT hCD27 = 100 (GM FITC)",P44A [32],90.5%
same,"binding, WT hCD27 = 100 (GM FITC)",V30A [33],102%
same,"binding, WT hCD27 = 100 (GM FITC)",G16A [34],97.3%
same,"binding, WT hCD27 = 100 (GM FITC)",R10A [35],113%
same,"binding, WT hCD27 = 100 (GM FITC)",F28A [36],60%
same,"binding, WT hCD27 = 100 (GM FITC)",H36A [37],85.2%
same,"binding, WT hCD27 = 100 (GM FITC)",I46A [38],82.7%
same,"binding, WT hCD27 = 100 (GM FITC)",Q91A [39],120%
same,"binding, WT hCD27 = 100 (GM FITC)",D43A [40],93.4%
same,"binding, WT hCD27 = 100 (GM FITC)",R37A [41],87%
same,"binding, WT hCD27 = 100 (GM FITC)",S63A [42],163%
same,"binding, WT hCD27 = 100 (GM FITC)",W90A [43],96.4%
same,"binding, WT hCD27 = 100 (GM FITC)",H60A [44],120%
same,"binding, WT hCD27 = 100 (GM FITC)",G89A [45],81.8%
same,"binding, WT hCD27 = 100 (GM FITC)",K31A [46],138%
same,"binding, WT hCD27 = 100 (GM FITC)",E9A [47],122%
same,"binding, WT hCD27 = 100 (GM FITC)",R87A [48],108%
same,"binding, WT hCD27 = 100 (GM FITC)",Q41A [49],76.1%
same,"binding, WT hCD27 = 100 (GM FITC)",V49A [50],97%
same,"binding, WT hCD27 = 100 (GM FITC)",W13A [51],93.4%
same,"binding, WT hCD27 = 100 (GM FITC)",K38A [52],97.7%
same,"binding, WT hCD27 = 100 (GM FITC)",P8A [53],79.1%
same,"binding, WT hCD27 = 100 (GM FITC)",N88A [54],116%
9F4 (mouse IgG2a) (antibody),"binding, WT hCD27 = 100 (GM FITC)",R37A [55],6.2%
same,"binding, WT hCD27 = 100 (GM FITC)",K38A [56],31.6%
same,"binding, WT hCD27 = 100 (GM FITC)",R93A [4],122%
same,"binding, WT hCD27 = 100 (GM FITC)",P44A [5],159%
same,"binding, WT hCD27 = 100 (GM FITC)",V30A [6],166%
same,"binding, WT hCD27 = 100 (GM FITC)",G16A [7],94.7%
same,"binding, WT hCD27 = 100 (GM FITC)",R10A [8],104%
same,"binding, WT hCD27 = 100 (GM FITC)",F28A [9],115%
same,"binding, WT hCD27 = 100 (GM FITC)",H36A [10],88.5%
same,"binding, WT hCD27 = 100 (GM FITC)",D32A [57],118%
same,"binding, WT hCD27 = 100 (GM FITC)",I46A [11],137%
same,"binding, WT hCD27 = 100 (GM FITC)",Q91A [12],149%
same,"binding, WT hCD27 = 100 (GM FITC)",D43A [13],201%
same,"binding, WT hCD27 = 100 (GM FITC)",S63A [15],153%
same,"binding, WT hCD27 = 100 (GM FITC)",W90A [16],130%
same,"binding, WT hCD27 = 100 (GM FITC)",H60A [17],185%
same,"binding, WT hCD27 = 100 (GM FITC)",Q15A [58],107%
same,"binding, WT hCD27 = 100 (GM FITC)",G89A [18],116%
same,"binding, WT hCD27 = 100 (GM FITC)",K31A [19],207%
same,"binding, WT hCD27 = 100 (GM FITC)",E9A [20],96.6%
same,"binding, WT hCD27 = 100 (GM FITC)",R87A [21],153%
same,"binding, WT hCD27 = 100 (GM FITC)",Q41A [22],113%
same,"binding, WT hCD27 = 100 (GM FITC)",V49A [23],151%
same,"binding, WT hCD27 = 100 (GM FITC)",W13A [24],90.7%
same,"binding, WT hCD27 = 100 (GM FITC)",K17A [59],98%
same,"binding, WT hCD27 = 100 (GM FITC)",P8A [26],68.5%
same,"binding, WT hCD27 = 100 (GM FITC)",N88A [27],153%
same,"binding, WT hCD27 = 100 (GM FITC)",R37A [60],35%
same,"binding, WT hCD27 = 100 (GM FITC)",K38A [61],44.7%
same,"binding, WT hCD27 = 100 (GM FITC)",R93A [31],91.1%
same,"binding, WT hCD27 = 100 (GM FITC)",P44A [32],91.7%
same,"binding, WT hCD27 = 100 (GM FITC)",V30A [33],95.6%
same,"binding, WT hCD27 = 100 (GM FITC)",G16A [34],102%
same,"binding, WT hCD27 = 100 (GM FITC)",R10A [35],99%
same,"binding, WT hCD27 = 100 (GM FITC)",F28A [36],58.2%
same,"binding, WT hCD27 = 100 (GM FITC)",H36A [37],66.5%
same,"binding, WT hCD27 = 100 (GM FITC)",D32A [62],66.3%
same,"binding, WT hCD27 = 100 (GM FITC)",I46A [38],82.7%
same,"binding, WT hCD27 = 100 (GM FITC)",Q91A [39],111%
same,"binding, WT hCD27 = 100 (GM FITC)",D43A [40],92.5%
same,"binding, WT hCD27 = 100 (GM FITC)",S63A [42],149%
same,"binding, WT hCD27 = 100 (GM FITC)",W90A [43],85.7%
same,"binding, WT hCD27 = 100 (GM FITC)",H60A [44],126%
same,"binding, WT hCD27 = 100 (GM FITC)",Q15A [63],118%
same,"binding, WT hCD27 = 100 (GM FITC)",G89A [45],77.5%
same,"binding, WT hCD27 = 100 (GM FITC)",K31A [46],133%
same,"binding, WT hCD27 = 100 (GM FITC)",E9A [47],109%
same,"binding, WT hCD27 = 100 (GM FITC)",R87A [48],98.8%
same,"binding, WT hCD27 = 100 (GM FITC)",Q41A [49],71.3%
same,"binding, WT hCD27 = 100 (GM FITC)",V49A [50],92.1%
same,"binding, WT hCD27 = 100 (GM FITC)",W13A [51],86.5%
same,"binding, WT hCD27 = 100 (GM FITC)",K17A [64],106%
same,"binding, WT hCD27 = 100 (GM FITC)",P8A [53],62.2%
same,"binding, WT hCD27 = 100 (GM FITC)",N88A [54],104%
Fc-mCD70 (from UniProt O55237 45-195) (Fc fusion),GM FITC,[65],1060
same,cells in the + gate,[66],52.5
same,cells in the + gate,human CD27 (human) [67],58.9
same,GM FITC,human CD27 (human) [68],1280
